Test results reported in patent publication US11890364B2, “Composition for prevention or treatment of hair loss” (GOOD T CELLS, INC., priority 2017, dated 2024).
Ends that are not written are not given here.

Molecular target: T1, caspase-1 (Homo sapiens, UniProt P29466)
T1 sequence (P29466 120-297 limits assumed): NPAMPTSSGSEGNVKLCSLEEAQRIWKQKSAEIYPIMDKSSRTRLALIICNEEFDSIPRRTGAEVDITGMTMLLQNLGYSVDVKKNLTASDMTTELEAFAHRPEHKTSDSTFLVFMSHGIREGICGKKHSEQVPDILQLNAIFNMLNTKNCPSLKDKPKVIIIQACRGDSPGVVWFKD
T1 sequence (P29466 317-404 limits assumed): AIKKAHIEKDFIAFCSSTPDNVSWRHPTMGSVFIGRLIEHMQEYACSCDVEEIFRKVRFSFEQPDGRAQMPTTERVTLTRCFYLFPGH
Assay: Caspase-1 treatment followed by HPLC analysis
Format: biochemical
Details: treated with caspase-1, HPLC analysis, FIG. 2
Method: Compound E1 obtained in Example 1, Compound E7 obtained in Example 7, and finasteride were prepared. Then, these compounds were treated with caspase-1, and analyzed with high performance liquid chromatography (HPLC). The results are illustrated in FIGS. 2 and 3.

For “Compound E7: finasteride linked via caspase-1 cleavage site (YVAD) and linkers to CTP+cysteine peptide (SEQ ID NO: 6) (YGRRARRRRRRC; also: finasteride linked via caspase-1 cleavage site (YVAD) and linkers, attachment site not given here)”, the “cleavage of the compound on treatment with caspase-1 (HPLC)” value was “cleaved into two moieties, that is, finasteride and the protein transduction domain”.
